Data as given in patent US11896642.
No end group written: not given here.

Legend:
[1] = target: Rat tail monomeric collagen I (Corning) (rat) (UniProt P02454); experiment: competitive ELISA on plate-coated rat tail collagen I, competitor biotin Compound 1B; IC50 against that of Compound 1
[2] = target: biotin labeled PDGF-BB (R&D Systems) (UniProt P01127); experiment: competitive ELISA: biotin PDGF-BB pre-incubated with conjugate at 1 mg/mL, added to plate-coated PDGF-Rβ Fc; A450 against reference Compound 1 (higher = less inhibition)
UniProt P01127, sequence (P01127 82-190): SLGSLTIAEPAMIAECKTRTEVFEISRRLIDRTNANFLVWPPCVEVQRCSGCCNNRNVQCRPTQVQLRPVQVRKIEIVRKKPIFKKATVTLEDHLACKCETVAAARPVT

Row | Binder | ratio IC50sample/IC50 Compound 1 [1] | ratio Absorbance 450 conjugate/Absorbance 450 reference [2]
1 | GQLYKSILYGSGSGSRR (not fully specified (C-terminus); also: several peptides per HA backbone, peptide load 20) [HA108 backbone HA, 20PM] | 2.82 | 16.3
2 | GQLYKSILYGSGSGSRR (not fully specified (C-terminus); also: several peptides per HA backbone, peptide load 50) [HA108 backbone HA, 50PM] | 7.49 | 9.31

More lines, now with the values ahead:

Row | ratio IC50sample/IC50 Compound 1 [1] | ratio Absorbance 450 conjugate/Absorbance 450 reference [2] | Binder
3 | 13.4 | 14.2 | GQLYKSILYGSGSGSRR (not fully specified (C-terminus); also: several peptides per HA backbone, peptide load 30) [HA108 backbone HA, 30PM]
4 | 14.8 | 17 | GQLYKSILYGSGSGSRR (not fully specified (C-terminus); also: several peptides per HA backbone, peptide load 10) [HA108 backbone HA, 10PM]
